# Results as given in paper PMC4615246 (Nucleus, 2015).
# T1: LacI-CFP-Nup153 (human, UniProt P49790 1-1475)
# T1 sequence: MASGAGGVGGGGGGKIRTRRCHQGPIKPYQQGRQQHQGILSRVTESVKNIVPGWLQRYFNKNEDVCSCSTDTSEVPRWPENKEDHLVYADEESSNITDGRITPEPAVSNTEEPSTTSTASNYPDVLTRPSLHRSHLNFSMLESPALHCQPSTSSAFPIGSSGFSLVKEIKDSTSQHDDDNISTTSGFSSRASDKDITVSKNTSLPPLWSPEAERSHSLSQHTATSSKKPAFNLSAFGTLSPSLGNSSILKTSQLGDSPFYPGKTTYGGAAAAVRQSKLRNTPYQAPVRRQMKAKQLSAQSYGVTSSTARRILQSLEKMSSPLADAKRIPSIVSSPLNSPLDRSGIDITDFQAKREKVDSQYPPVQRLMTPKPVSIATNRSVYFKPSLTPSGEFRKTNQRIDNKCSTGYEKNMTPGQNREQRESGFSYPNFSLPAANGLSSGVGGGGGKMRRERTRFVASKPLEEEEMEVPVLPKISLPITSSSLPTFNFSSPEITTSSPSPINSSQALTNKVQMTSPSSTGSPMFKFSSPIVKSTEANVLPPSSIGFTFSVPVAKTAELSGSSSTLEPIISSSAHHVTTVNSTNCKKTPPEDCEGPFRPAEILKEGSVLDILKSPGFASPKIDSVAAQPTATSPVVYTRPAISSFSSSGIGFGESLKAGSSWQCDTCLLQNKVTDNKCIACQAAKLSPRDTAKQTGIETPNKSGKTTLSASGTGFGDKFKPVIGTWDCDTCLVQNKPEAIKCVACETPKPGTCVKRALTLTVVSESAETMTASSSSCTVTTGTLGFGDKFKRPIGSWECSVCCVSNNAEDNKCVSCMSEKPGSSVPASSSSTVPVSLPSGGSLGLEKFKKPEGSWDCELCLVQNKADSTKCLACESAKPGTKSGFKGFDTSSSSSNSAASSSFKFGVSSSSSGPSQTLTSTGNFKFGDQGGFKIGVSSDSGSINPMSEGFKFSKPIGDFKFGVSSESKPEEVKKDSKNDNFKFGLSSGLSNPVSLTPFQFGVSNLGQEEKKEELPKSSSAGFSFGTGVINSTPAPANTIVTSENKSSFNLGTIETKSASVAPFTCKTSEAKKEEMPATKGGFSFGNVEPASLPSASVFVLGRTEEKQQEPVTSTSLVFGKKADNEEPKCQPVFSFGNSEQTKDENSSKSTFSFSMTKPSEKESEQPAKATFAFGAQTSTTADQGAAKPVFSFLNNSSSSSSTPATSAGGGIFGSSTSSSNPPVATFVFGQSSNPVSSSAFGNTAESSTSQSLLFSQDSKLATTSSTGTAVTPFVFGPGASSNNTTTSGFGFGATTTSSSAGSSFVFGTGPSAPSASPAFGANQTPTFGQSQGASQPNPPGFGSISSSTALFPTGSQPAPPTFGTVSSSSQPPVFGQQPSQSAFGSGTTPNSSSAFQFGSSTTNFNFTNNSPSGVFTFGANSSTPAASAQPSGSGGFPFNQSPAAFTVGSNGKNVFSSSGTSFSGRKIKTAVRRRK
# T2: LacI-CFP-Nup50 (human, UniProt Q9UKX7 1-468)
# T2 sequence: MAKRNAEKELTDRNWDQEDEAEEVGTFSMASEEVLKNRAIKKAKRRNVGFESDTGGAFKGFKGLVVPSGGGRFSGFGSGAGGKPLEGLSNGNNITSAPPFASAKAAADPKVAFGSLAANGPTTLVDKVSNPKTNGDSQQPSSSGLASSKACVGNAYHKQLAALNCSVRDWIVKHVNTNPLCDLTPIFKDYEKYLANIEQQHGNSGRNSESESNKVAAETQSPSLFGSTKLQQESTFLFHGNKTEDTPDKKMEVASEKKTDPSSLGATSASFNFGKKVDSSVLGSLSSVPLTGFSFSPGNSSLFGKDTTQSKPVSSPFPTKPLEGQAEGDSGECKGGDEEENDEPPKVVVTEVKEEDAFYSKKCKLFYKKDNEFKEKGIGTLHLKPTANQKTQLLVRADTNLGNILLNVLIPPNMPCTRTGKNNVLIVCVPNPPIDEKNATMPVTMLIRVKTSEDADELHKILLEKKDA
# B1: Nup62 (endogenous) (natural protein)
# chain: MSGFNFGGTGAPTGGFTFGTAKTATTTPATGFSFSTSGTGGFNFGAPFQPATSTPSTGLFSLATQTPATQTTGFTFGTATLASGGTGFSLGIGASKLNLSNTAATPAMANPSGFGLGSSNLTNAISSTVTSSQGTAPTGFVFGPSTTSVAPATTSGGFSFTGGSTAQPSGFNIGSAGNSAQPTAPATLPFTPATPAATTAGATQPAAPTPTATITSTGPSLFASIATAPTSSATTGLSLCTPVTTAGAPTAGTQGFSLKAPGAASGTSTTTSTAATATATTTSSSSTTGFALNLKPLAPAGIPSNTAAAVTAPPGPGAAAGAAASSAMTYAQLESLINKWSLELEDQERHFLQQATQVNAWDRTLIENGEKITSLHREVEKVKLDQKRLDQELDFILSQQKELEDLLSPLEELVKEQSGTIYLQHADEEREKTYKLAENIDAQLKRMAQDLKDIIEHLNTSGAPADTSDPLQQICKILNAHMDSLQWIDQNSALLQRKVEEVTKVCEGRRKEQERSFRITFD
# B2: Nup160 (endogenous) (natural protein)
# chain: MLHLSAAPPAPPPEVTATARPCLCSVGRRGDGGKMAAAGALERSFVELSGAERERPRHFREFTVCSIGTANAVAGAVKYSESAGGFYYVESGKLFSVTRNRFIHWKTSGDTLELMEESLDINLLNNAIRLKFQNCSVLPGGVYVSETQNRVIILMLTNQTVHRLLLPHPSRMYRSELVVDSQMQSIFTDIGKVDFTDPCNYQLIPAVPGISPNSTASTAWLSSDGEALFALPCASGGIFVLKLPPYDIPGMVSVVELKQSSVMQRLLTGWMPTAIRGDQSPSDRPLSLAVHCVEHDAFIFALCQDHKLRMWSYKEQMCLMVADMLEYVPVKKDLRLTAGTGHKLRLAYSPTMGLYLGIYMHAPKRGQFCIFQLVSTESNRYSLDHISSLFTSQETLIDFALTSTDIWALWHDAENQTVVKYINFEHNVAGQWNPVFMQPLPEEEIVIRDDQDPREMYLQSLFTPGQFTNEALCKALQIFCRGTERNLDLSWSELKKEVTLAVENELQGSVTEYEFSQEEFRNLQQEFWCKFYACCLQYQEALSHPLALHLNPHTNMVCLLKKGYLSFLIPSSLVDHLYLLPYENLLTEDETTISDDVDIARDVICLIKCLRLIEESVTVDMSVIMEMSCYNLQSPEKAAEQILEDMITIDVENVMEDICSKLQEIRNPIHAIGLLIREMDYETEVEMEKGFNPAQPLNIRMNLTQLYGSNTAGYIVCRGVHKIASTRFLICRDLLILQQLLMRLGDAVIWGTGQLFQAQQDLLHRTAPLLLSYYLIKWGSECLATDVPLDTLESNLQHLSVLELTDSGALMANRFVSSPQTIVELFFQEVARKHIISHLFSQPKAPLSQTGLNWPEMITAITSYLLQLLWPSNPGCLFLECLMGNCQYVQLQDYIQLLHPWCQVNVGSCRFMLGRCYLVTGEGQKALECFCQAASEVGKEEFLDRLIRSEDGEIVSTPRLQYYDKVLRLLDVIGLPELVIQLATSAITEAGDDWKSQATLRTCIFKHHLDLGHNSQAYEALTQIPDSSRQLDCLRQLVVVLCERSQLQDLVEFPYVNLHNEVVGIIESRARAVDLMTHNYYELLYAFHIYRHNYRKAGTVMFEYGMRLGREVRTLRGLEKQGNCYLAALNCLRLIRPEYAWIVQPVSGAVYDRPGASPKRNHDGECTAAPTNRQIEILELEDLEKECSLARIRLTLAQHDPSAVAVAGSSSAEEMVTLLVQAGLFDTAISLCQTFKLPLTPVFEGLAFKCIKLQFGGEAAQAEAWAWLAANQLSSVITTKESSATDEAWRLLSTYLERYKVQNNLYHHCVINKLLSHGVPLPNWLINSYKKVDAAELLRLYLNYDLLEEAVDLVSEYVDAVLGKGHQYFGIEFPLSATAPMVWLPYSSIDQLLQALGENSANSHNIALSQKILDKLEDYQQKVDKATRDLLYRRTL
# B3: Nup53 (endogenous) (natural protein)
# chain: MAAFAVEPQGPALGSEPMMLGSPTSPKPGVNAQFLPGFLMGDLPAPVTPQPRSISGPSVGVMEMRSPLLAGGSPPQPVVPAHKDKSGAPPVRSIYDDISSPGLGSTPLTSRRQPNISVMQSPLVGVTSTPGTGQSMFSPASIGQPRKTTLSPAQLDPFYTQGDSLTSEDHLDDSWVTVFGFPQASASYILLQFAQYGNILKHVMSNTGNWMHIRYQSKLQARKALSKDGRIFGESIMIGVKPCIDKSVMESSDRCALSSPSLAFTPPIKTLGTPTQPGSTPRISTMRPLATAYKASTSDYQVISDRQTPKKDESLVSKAMEYMFGW
# B4: Nup85 (endogenous) (natural protein)
# chain: MEELDGEPTVTLIPGVNSKKNQMYFDWGPGEMLVCETSFNKKEKSEMVPSCPFIYIIRKDVDVYSQILRKLFNESHGIFLGLQRIDEELTGKSRKSQLVRVSKNYRSVIRACMEEMHQVAIAAKDPANGRQFSSQVSILSAMELIWNLCEILFIEVAPAGPLLLHLLDWVRLHVCEVDSLSADVLGSENPSKHDSFWNLVTILVLQGRLDEARQMLSKEADASPASAGICRIMGDLMRTMPILSPGNTQTLTELELKWQHWHEECERYLQDSTFATSPHLESLLKIMLGDEAALLEQKELLSNWYHFLVTRLLYSNPTVKPIDLHYYAQSSLDLFLGGESSPEPLDNILLAAFEFDIHQVIKECSIALSNWWFVAHLTDLLDHCKLLQSHNLYFGSNMREFLLLEYASGLFAHPSLWQLGVDYFDYCPELGRVSLELHIERIPLNTEQKALKVLRICEQRQMTEQVRSICKILAMKAVRNNRLGSALSWSIRAKDAAFATLVSDRFLRDYCERGCFSDLDLIDNLGPAMMLSDRLTFLGKYREFHRMYGEKRFADAASLLLSLMTSRIAPRSFWMTLLTDALPLLEQKQVIFSAEQTYELMRCLEDLTSRRPVHGESDTEQLQDDDIETTKVEMLRLSLARNLARAIIREGSLEGS
# B5: Nup93 (endogenous) (natural protein)
# chain: MDTEGFGELLQQAEQLAAETEGISELPHVERNLQEIQQAGERLRSRTLTRTSQETADVKASVLLGSRGLDISHISQRLESLSAATTFEPLEPVKDTDIQGFLKNEKDNALLSAIEESRKRTFGMAEEYHRESMLVEWEQVKQRILHTLLASGEDALDFTQESEPSYISDVGPPGRSSLDNIEMAYARQIYIYNEKIVNGHLQPNLVDLCASVAELDDKSISDMWTMVKQMTDVLLTPATDALKNRSSVEVRMEFVRQALAYLEQSYKNYTLVTVFGNLHQAQLGGVPGTYQLVRSFLNIKLPAPLPGLQDGEVEGHPVWALIYYCMRCGDLLAASQVVNRAQHQLGEFKTWFQEYMNSKDRRLSPATENKLRLHYRRALRNNTDPYKRAVYCIIGRCDVTDNQSEVADKTEDYLWLKLNQVCFDDDGTSSPQDRLTLSQFQKQLLEDYGESHFTVNQQPFLYFQVLFLTAQFEAAVAFLFRMERLRCHAVHVALVLFELKLLLKSSGQSAQLLSHEPGDPPCLRRLNFVRLLMLYTRKFESTDPREALQYFYFLRDEKDSQGENMFLRCVSELVIESREFDMILGKLENDGSRKPGVIDKFTSDTKPIINKVASVAENKGLFEEAAKLYDLAKNADKVLELMNKLLSPVVPQISAPQSNKERLKNMALSIAERYRAQGISANKFVDSTFYLLLDLITFFDEYHSGHIDRAFDIIERLKLVPLNQESVEERVAAFRNFSDEIRHNLSEVLLATMNILFTQFKRLKGTSPSSSSRPQRVIEDRDSQLRSQARTLITFAGMIPYRTSGDTNARLVQMEVLMN
# Biological target: T1, LacI-CFP-Nup153
# Experiment: LacI/LacO array recruitment in cells
row,percent of transfected cells showing colocalization,Binder
1,56%,B1
2,33%,B2
3,14%,B3
4,58%,B4
5,23%,B5

# Biological target: T2, LacI-CFP-Nup50
# Experiment: LacI/LacO array recruitment in cells
row,percent of transfected cells showing colocalization,Binder
1,43%,B1
2,4%,B2
3,6%,B3
4,32%,B4
